Measurements reported in patent US20240026407A1, “MODIFICATION OF SAPONINS” (GLAXOSMITHKLINE BIOLOGICALS SA, priority 2020, published 2024).

B1: 993 (protein)
chain: MKKLLLCLCFLAIGFLSNAKIKPTQLTCEYLKNPSVVDVLQPRLAWINVADAGERGQEQTAYQIRVASLKEKLENADLWDSGKVKDDASIRVKYDGEKLVSRQDCWWQVRVWDKNNEVSEWSEPAYWHMGLLNENDWTANWIGVPWQGEETLPKPASPAATLPGELPPPAPLFRKEFNATKQVEKAVAYVTGLGYFELYLNGEKVGDDVLVPNQTNYGKRPALTQQYIPLDDNFKEYKVMYLAYDISDQLVSGANTFGAILGNGFYNPSKHWALGYGTPRLLVQVHVAYTDGTEELIVSDESWKVSKSPILMDMVYYGEHYDARLEQDGWCSAGFDDSAWENAILRKAPEGKLVAHTAHPDKVYETLQPVRIEKMYNGNYKVDFGEEISGWVRLKNVEGPEGHKVKINYLSNNYSGDNSYIFKGEGKENYAARFNWFVFREVEIENWPGVLAPENICAEAINTYIEESAHFETSNPLFNQVNKIWKRSQTDNMHGGIASDCPHRERSPYTGDGQVACVTVMHNFDAQNFYYKWIHDMIGAQNVKTGYVPNGAPWQPGCGGGVAWGAAINIIPWEFYVHYGAVDMLEEAYEPMKEYVRYMQTWVNNEGIMNSQRVGLDGNVLQWFNLGEWVTPGDLPPDSLVHTFYFWRCADITAKTAEILGKRKEAKRNRELAETTQSAFHKCFFDAEKGTYGNAGANIFALKMGVPENEYQRVINALKANIKKNKGHLDTGIFGTQFFFEVLSENGLHELAYEAMNKKEEPGYGRWLTLGATTSWENWNTDGSHNHPMFGGGLVWLYRKLAGMQADEKNPGYRHIIFHPQPIKELEFAEYFNKTPYGKAGIKWQQTEGKLSVGVTVPVGCTATVILPGGHFLADGKAMEKVAEVQLVSQKEDELIIKVGAGNYQFSN
modifications: Draconibacterium orientale
B2: 1076 (protein, listed as Kribbella flavida)
chain: MSFRTRFGCLLAAVLLLTPLVPATGSPPATRETLQVRNLKTNNLTNPLGVPGTPPRLSWQLDGDRRGITQSRYQIRVASTPAKTARPDIWDSGVVRSTDSIEVPYGGPALTTGTAYHWTVRVWDDAGKASAWSPVATFETGPLRPGDWQGDWIGADNQPGPEWTDTTIDADVTLVKDALGVFFRGRGGVGYMWQLNQLTPDKPLLRPHVRQPGGGYVLLGEIPLAAGTDLKQRHHLRITVAGRTITTWLDGVQVDSRERSDHNAPGVVGFRTDGAEHGVVHSLKVTNVAGEVLVDTAFPAGDQTFPDGTVRAEGGLQVKGTTDLWLPGKPIPVFRKAISLPKAKKVASARIDAAAQGIYELTVNGRKAGDHQLAPGWTDYARRIQSQTYDVTKLLKSGANTLGAEVAPGWFTGNLAMFGPNKYGTDTAFIAQLRVTYTDGTADVFATDSSWQTAPGAVRVADLLNGESYDARRTASEWVPAQVRPSATAKIVPQTDQPVRVTQELKARAIPSPTPGAYLYDLGQNMVGIARLTLHGRPGQTVKIRYGEVLNPDGTLYTDNLRSAKATDHYTFATSRPETYQPRFTFHGFRYVEVSGLPTAPPASAIVGVVLGTDAEQVNEFRTNSPLVNQLHSNIVWGQRGNFLSIPTDTPARDERMGWTGDINVFARTAVYNLDSQAFLTKWLQDLRDTQRADGAYASVAPTVPNSFDGGMGNAGWADAGVNVPWTLWQAYGDTSVIRQHYASMTRYVDYLVASSNGLIRGGGDYGDWLNLDDPTPGELIGTSFVAKGARQLSQMAAAIGHTADAAKYQRVYEDVRAAFAARFVAADGKVGSDSQTGYILAFTSDLVPADRIAAAGEHFAATILRRDTHLSTGFLGVDGLLPVLTKIGRTDLAYRLLQNTSYPSWGYEIGKGATTIWERWNSINPDGTFNDVGMNSFNHYAYGAVGEWMYRTLAGLSAAEPGYRKALIAPTPGDGIDTAQLRHRTPYGEVGSQWRRLADGRFTLEVEVPANTTATVRLPAAEARQITESGRALSRAVGVSGVVDEGTTVALTVGSGNYRFAVRP

Key:
Format in all cases: biochemical, Quillaja saponaria
[1] = Experiment 6-1: screening of rhamnosidases for derhamnosylation of saponins in treated bark extract (2%), QS-17 2310 to QS-18 2164 (PAR %); conditions: TBE 2%, pH 7.5, 30 degC, 18 h; TIC peak area ratio percent, LCMS/MS; negative controls 3.061, 2.429
[2] = Experiment 6-1: specificity of rhamnosidases towards other rhamnose residues (C3 saccharide rhamnose, C28 saccharide rhamnose); conditions: TBE 2%, pH 7.5, 30 degC, 18 h; LCMS/MS; negative controls 0.18, 0.17
[3] = Experiment 6-1: screening of rhamnosidases for derhamnosylation of saponins in treated bark extract (2%), QS-17 2296 to QS-18 2150 (PAR %); conditions: TBE 2%, pH 7.5, 30 degC, 18 h; TIC peak area ratio percent of rhamnosylated starting saponin to derhamnosylated product, LCMS/MS; negative controls 4.876, 5.225
[4] = Experiment 6-2: screening of rhamnosidases for derhamnosylation of saponins in treated bark extract (25%), relative % of Left, Middle and Right Peak by UV HPLC; conditions: TBE 25%, pH 7.4, 19.5 h; for Left Peak: mainly QS-17 family, negative control 24%; for Middle Peak: mainly QS-18 and desglucosyl-QS-17 family, negative control 50%; for Right Peak: mainly QS-21 family, negative control 26%
[5] = Experiment 6-3: screening of rhamnosidases for derhamnosylation of saponins in crude bark extract (80%), relative % of Left, Middle and Right Peak by UV HPLC; conditions: CBE 80%, pH 7.4, 30 degC, 19.5 h; for Left Peak: mainly QS-17 family, negative control 27%; for Middle Peak: mainly QS-18 and desglucosyl-QS-17 family, negative control 48%; for Right Peak: mainly QS-21 family, negative control 26%
Procedure, shortened: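 Clarified lysates of expressed rhamnosidase variants were incubated with crude bark extract (pH 7.4, final 80%) at 30 degC with shaking for 19.5 h, then quenched with MeCN+2% AcOH. UV HPLC gave relative % of Left (QS-17), Middle (QS-18/desglucosyl-QS-17) and Right (QS-21) peaks.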

[6] = Experiment 6-1: screening of rhamnosidases for derhamnosylation of saponins in treated bark extract (2%), desglucosyl-QS-17 2134 to QS-21 1988 (PAR %); conditions: TBE 2%, pH 7.5, 30 degC, 18 h; TIC peak area ratio percent, LCMS/MS; negative controls 2.719, 2.158

Molecule	Peak57 (PAR %) [1] [%]	ratio PP/QS-21 [2]	QS-17 (PAR %) [3] [%]	Left Peak [4] [%]	Middle Peak [4] [%]	Right Peak [4] [%]	Left Peak [5] [%]	Middle Peak [5] [%]	Right Peak [5] [%]	Peak75 (PAR %) [6] [%]
B1	1.129	0.18	3.836	18	56	27	25	49	26	2.211
B2	1.295	0.19	3.766	22	52	26	26	48	27	1.961
